The target of test [1] is full-length OrfG-A204C-A264C (purified) (Streptococcus thermophilus). In words: SEC-MALS; membrane proteins, Superose 6 10/300 Increase, 50 mM tris-HCl pH 8, 300 mM NaCl, 0.1% OGNG.
Test [2] addresses OrfGExt-A204C-A264C (Streptococcus thermophilus). In words: crystal structure; sitting drop, 20°C; WT in 1.26 M ammonium sulfate, 100 mM sodium cacodylate pH 6.5; A204C-A264C in 40% PEG 300, 100 mM potassium phosphate citrate pH 4.2.
Test [3] shares this target. In words: SEC-MALS; soluble proteins, Superdex 200 Increase, 50 mM tris-HCl, 100 mM NaCl, pH 8.
For test [4], the target named is OrfGExt (purified, WT) (Streptococcus thermophilus). Briefly: crystal structure; sitting drop, 20°C; WT in 1.26 M ammonium sulfate, 100 mM sodium cacodylate pH 6.5; A204C-A264C in 40% PEG 300, 100 mM potassium phosphate citrate pH 4.2.
The target in test [5] is full-length OrfG-A204C-A264C produced in S. thermophilus (Streptococcus thermophilus). Briefly: cross-linking; disulfide cross-linking of engineered cysteines in S. thermophilus; membrane fractions with or without DTT, SDS-PAGE, Western blot with Ab-G.
Test [6] has as its target Orf13-V164C-Q280C (not stated (Tn916, an ICE widespread in Enterococcus faecalis and other firmicutes)). In words: SEC-MALS; soluble proteins, Superdex 200 Increase, 50 mM tris-HCl, 100 mM NaCl, pH 8.

In test [1], “full-length OrfG-A204C-A264C (purified) (natural protein)” registered a stoichiometry N of 3.

Consider “OrfGExt-A204C-A264C (domain or fragment)”, for which the stoichiometry N in test [2] and in test [3] was 3 each time. “OrfGExt (purified, WT) (domain or fragment)”: the stoichiometry N in test [4] was found to be 3. “full-length OrfG-A204C-A264C produced in S. thermophilus (natural protein)” came in with a stoichiometry N in test [5] of 3. For Orf13-V164C-Q280C (domain or fragment), the stoichiometry N in test [6] amounted to 3.
